From US20250332254A1, “METHODS FOR TREATING PATIENTS WITH FAMILIAL HYPERCHOLESTEROLEMIA” (REGENERON PHARMACEUTICALS, INC., priority 2016, published 2025)
Values joined by “and” are separate entries in the source; they are usually repeats but may differ in a detail not shown here. Equal entries are not always repeated.

Target: T1, ANGPTL3 (Homo sapiens, UniProt Q9Y5C1)
T1 construct: Angiopoietin-like protein 3 (ANGPTL3) is a secreted protein expressed in the liver; from tissue; host or cells: in vivo, human subjects; circulating protein secreted by the liver
T1 sequence (Q9Y5C1 17-460): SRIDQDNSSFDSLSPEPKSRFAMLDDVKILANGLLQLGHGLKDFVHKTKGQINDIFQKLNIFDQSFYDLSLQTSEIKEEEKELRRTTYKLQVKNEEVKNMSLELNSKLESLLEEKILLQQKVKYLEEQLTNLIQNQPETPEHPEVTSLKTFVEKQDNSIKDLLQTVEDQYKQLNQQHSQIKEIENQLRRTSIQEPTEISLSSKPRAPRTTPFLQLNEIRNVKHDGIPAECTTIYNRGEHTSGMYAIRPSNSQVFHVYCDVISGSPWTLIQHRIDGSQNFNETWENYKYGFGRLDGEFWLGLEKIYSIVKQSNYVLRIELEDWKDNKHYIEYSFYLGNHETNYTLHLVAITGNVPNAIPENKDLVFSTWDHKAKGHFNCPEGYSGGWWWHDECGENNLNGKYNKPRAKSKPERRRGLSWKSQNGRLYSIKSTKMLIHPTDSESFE
Assay: Phase 2 open-label study of evinacumab in patients with homozygous familial hypercholesterolemia on concomitant lipid-lowering therapies
Type: in vivo
Conditions: for LDL-C, Mean of Percent Change from Baseline ± SE (%) / Non-HDL-C, Mean of Percent Change from Baseline ± SE (%) / Apolipoprotein B, Mean of Percent Change from Baseline ± SE (%): HoFH patients, 250 mg SC wk 0 + 15 mg/kg IV wk 2
Protocol: Patients: The nine patients (5 men, 4 women) were selected based on their genotypes and phenotypes. All presented a history of LDL-C >500 mg per deciliter or >400 mg per deciliter after portacaval shunt, premature atherosclerosis (8 of 9 with prior history of cardiovascular events) and severe xanthomatosis, and were homozygotes or compound heterozygotes for known FH-causing LDLR mutations (Hobbs, et al. 1992 Hum Mutat 1:445-66). Three patients were null homozygotes. All patients were on maximally tolerated lipid-lowering therapy.
Study Treatment: The patients were required to maintain their usual background lipid-lowering therapy and diet and exercise regimens throughout the study. All patients received a single open-label dose of evinacumab 250 mg subcutaneously in the abdominal area during the baseline visit and a single 15 mg per kilogram intravenous dose of evinacumab 2 weeks later. The sterile, lyophilized evinacumab drug product was supplied in a 5-ml single-use glass vial for reconstitution to a concentration of 100 mg per milliliter for subcutaneous doses and 50 mg per milliliter for intravenous doses. Patients were followed for a period of up to 24 weeks after the intravenous dose to allow for washout of evinacumab, and were offered enrollment in an extension study.
Pharmacodynamic Assessment: Fasting blood samples were collected before administration of study drug, at baseline and at regular intervals during the open-label treatment period and safety follow-up period, for measurement of LDL-C, non-HDL-C, total cholesterol, HDL-C, apolipoprotein B, lipoprotein (a), triglycerides, apolipoprotein A-1, and other parameters. The primary endpoint was the mean ±standard deviation (SD) percent change in LDL-C from baseline to week 4.

[1] = nine HoFH patients, baseline to week 4, given as a decrease
[2] = nine HoFH patients, between weeks 4 and 12

LDL-C, Mean of Percent Change from Baseline ± SE (%) (Week 5): −46.8 ± 5.1%
Non-HDL-C, Mean of Percent Change from Baseline ± SE (%) (Week 5): −46.6 ± 5.0%
Apolipoprotein B, Mean of Percent Change from Baseline ± SE (%) (Week 6): −43.1 ± 4.9%
LDL-C, Mean of Percent Change from Baseline ± SE (%) (Week 6): −52.1 ± 4.9%
Non-HDL-C, Mean of Percent Change from Baseline ± SE (%) (Week 6): −51.5 ± 4.8%
Apolipoprotein B, Mean of Percent Change from Baseline ± SE (%) (Week 8): −42.7 ± 4.8%
LDL-C, Mean of Percent Change from Baseline ± SE (%) (Week 8): −51.6 ± 6.0%
Non-HDL-C, Mean of Percent Change from Baseline ± SE (%) (Week 8): −50.6 ± 5.7%
LDL-C, Mean of Percent Change from Baseline ± SE (%) (Week 10): −45.6 ± 4.6%
Non-HDL-C, Mean of Percent Change from Baseline ± SE (%) (Week 10): −44.8 ± 4.4%
Apolipoprotein B, Mean of Percent Change from Baseline ± SE (%) (Week 12): −29.5 ± 7.2%
LDL-C, Mean of Percent Change from Baseline ± SE (%) (Week 12): −36.6 ± 6.4%
Non-HDL-C, Mean of Percent Change from Baseline ± SE (%) (Week 12): −36.4 ± 6.2%
LDL-C reached, Patient C (Patient C on high-dose statins, ezetimibe and lomitapide, week 4, 2 weeks after evinacumab intravenous administration): 15 mg per deciliter
reduction in LDL-C, Patient C (Patient C, concomitant lomitapide, 2 weeks after evinacumab intravenous administration): 90%
reduction in LDL-C, Patient G (Patient G, concomitant lomitapide, 2 weeks after evinacumab intravenous administration): 44%
triglycerides percent change, interquartile range (nine HoFH patients, baseline to week 4): −57% to −38%
HDL-C decreased by (percent change, mean±SD) [1]: 36±16%
apolipoprotein B decreased by (percent change, mean±SD) [1]: 46±18%
non-HDL-C decreased by (percent change, mean±SD) [1]: 49±22%
triglycerides decreased by (percent change, median) [1]: 47%
Overall mean±SD peak reduction in LDL-C [2]: -58+18% and −58±18%
absolute peak reduction in LDL-C [2]: 202 mg/dL
range of peak reduction in LDL-C (nine HoFH patients, between weeks 4 and 12, range across patients): -90% to-33%
absolute change from baseline in LDL-C (mean±SD) (nine HoFH patients, week 4): −157±90 mg per deciliter
mean±SD achieved LDL-C value (nine HoFH patients, week 4): 219±191 mg per deciliter
mean±SD percent change in LDL-C from baseline to week 4 (pre-specified primary endpoint) (nine HoFH patients, week 4): −49±23%
range of absolute change from baseline in LDL-C (nine HoFH patients, week 4, range across patients): −323 to −71 mg per deciliter
reduction in LDL-C achieved by one patient (one patient, week 4 (2 weeks after the intravenous dose)): greater than 80%
reduction in LDL-C, patient D (patient D, no lomitapide, week 4): −77%
Substance: evinacumab: human anti-ANGPTL3 monoclonal antibody; HCVR SEQ ID NO:1, LCVR SEQ ID NO:5
reductions in LDL-C from baseline in all patients (all nine patients, including the three homozygous null patients lacking LDLR activity): clinically meaningful reductions in LDL-C from baseline
normalization of LDL-C concentrations (evinacumab add-on therapy in HoFH participants): normalization of LDL-C concentrations in four HoFH participants
LDL-C decreased (primary endpoint) (nine HoFH adults on maximally-tolerated conventional therapies, week 4, given as a decrease): 49%
adverse events considered as related to the study medication (nine HoFH patients): Six events were considered as related to the study medication
adverse events leading to treatment discontinuation (nine HoFH patients): none led to treatment discontinuation
occurrence of at least one adverse event (nine HoFH patients): All nine patients reported the occurrence of at least one adverse event
serious adverse events (nine HoFH patients): One event (coronary artery disease due to underlying disease) was serious but was not considered as related to the study medication
